Test results reported in patent US5807729A, “Metalloprotease having increased activity” (Novo Nordisk A/S, priority 1995, dated 1998).

Key:
[1] = tested on: succinyl-Ala-Ala-Ala-p-nitroanilide; assay: Hydrolysis of succinyl-Ala-Ala-Ala-p-nitroanilide; type: biochemical
Excerpt: Both p45 metalloprotease and a neutral zinc endopeptidase secreted by Flavobacterium meningosepticum poorly hydrolyze the substrate N-[3-(2--furyl)acryloyl]-Leu-Gly-NH2. However, the neutral zinc endopeptidase secreted by Flavobacterium meningosepticum will hydrolyze the vertebrate elastase substrate succinyl-Ala-Ala-Ala-p-nitroanilide, a substrate that thermolysin cannot hydrolyze (Table 2). Therefore, succinyl-Ala-Ala-Ala-p-nitroanilide hydrolysis by the p45 metalloprotease is investigated. […] This effect further differentiates the p45 metalloprotease from other existing metalloproteases.

[2] = tested on: pro-trypsin-like F. oxysporum protease; assay: Processing of pro-trypsin-like F. oxysporum protease to active trypsin-like protease
Experimental: Activatable pro-trypsin-like F. oxysporum protease is determined in microtiter wells as released trypsin-like F. oxysporum protease (tryptic) activity from pro-trypsin-like F. oxysporum protease after a 40 minute pre-incubation at room temperature with purified Fusarium oxysporum metalloprotease (approximately 6 ug).
Processed pro-trypsin-like F. oxysporum protease(i.e. mature trypsin-like F. oxysporum protease) activity is determined directly from microtiter plates containing the pre-incubated metalloprotease/pro-trypsin-like F. oxysporum protease cocktail (total volume=100 microliters), and 100 microliters of substrate (87 mg/ml.L-BAPNA stock in DMSO diluted 50-fold in sample buffer). Again, active trypsin-like F. oxysporum protease is determined as an increase in absorbance at 405 nm immediately after L-BAPNA addition.
Purified pro-trypsin-like F. oxysporum protease is added to fresh A. oryzae fermentation broths containing the recombinant p45 metalloprotease (approximately 90 mg/L) and incubated for either 1, 2, or 3 hours at room temperature. Levels of pro-trypsin-like F. oxysporum protease in the incubation mixtures range from 100 ug/ml to 13 mg/ml.
Purified pro-trypsin-like F. oxysporum protease (100 ug/ml) is added to various amounts of either purified recombinant p45 metalloprotease or purified B.s. metalloprotease.

[3] = tested on: FTC-labeled casein; assay: Protease analysis using FTC-labeled casein; type: biochemical
Experimental: Samples are incubated at room temperature for 30 minutes.

[4] = tested on: Ac-Pro-Leu-Gly[2-mercapto-4-methyl-pentanoyl]-Leu-Gly-OEt; assay: Hydrolysis of the thermolytic merc-peptide substrate (Ellman's reagent, 405 nm); type: biochemical
Experimental: The thermolytic substrate Ac-Pro-Leu-Gly[2-mercapto-4-methyl-pentanoyl]-Leu-Gly-OEt (i.e. the merc-peptide) is also used to further characterize the p45 metalloprotease and B.t. thermolysin.
Reaction mixtures contain 100 microliters of Ac-Pro-Leu-Gly[2-mercapto-4-methyl-pentanoyl]-Leu-Gly-OEt (1 mM, and 1 mM Ellman's reagent) and 100 microliters of either B.t. thermolysin or purified p45 metalloprotease (0-3 ug/ml) in sample buffer.

B1: p45 Metalloprotease: metalloprotease purified from Fusarium oxysporum DSM 2672 broth, 45 kDa band; also produced recombinantly in A. oryzae (protein)
chain: MRFSDSLLLIGLSSLAGAHPSRRAPNPSPLSKRGLDLEAFKLPPMAEYVPQDEVPDDVSAKVVTKRADYTETAKDLVKSTFPKATFRMVTDHYVGSNGIAHVNFKQTVNGIDIDNADFNVNIGADGEVFSYGNSFYEGKIPGPLTKRDEKDPVDALKDTVDVLSLPVEADKAKAEKKSKNHYTFTGTKGTVSKPEAKLTYLVDENKELKLTWRVETDIVDNWLLTYVNAAKTDEVVGVVDYVNEATYKVYPWGVNDPSKGSRSTVENPWNLAASEFTWLSDGSNNYTTTRGNNGIAQVNPSGGSTYLNNYRPDSPSLKFEYDYSTSTTTPTTYRDASIAQLFYTANKYHDLLYLLGFTEQAGNFQTNNNGQGGVGNDMVILNAQDGSGTNNANFATPADGQPGRMRMYLWTYSTPQRDCSFDAGVVIHEYTHGLSNRLTGGPANSGCLPGGESGGMGEGWGDFMATAIHIQSKDTRASNKVMGDWVYNNAAGIRAYPYSTSLTTNPYTYKSVNSLSGVHAIGTYWATVLYEVMWNLIDKHGKNDADEPKFNNGVPTDGKYLAMKLVVDGMSLQPCNPNMVQARDAIIDADTALTKGANKCEIWKGFAKRGLGTGAKYSASSRTESFALPSGC
- Specific Activity, substrate Ala-Ala-Ala-pNA [1]: < 2 pmol pNA/min*mg
- hydrolysis of succinyl-Ala-Ala-Ala-p-nitroanilide ([1]; substrate 4.4 mM in 0.1M Tris, pH 8): neither, the p45 metalloprotease nor the B.s. thermolysin would hydrolyze
- Specific Activity, substrate pro-trypsin [2]: 1.2 g trypsin/min*mg
- share of activatable pro-trypsin-like protease processed ([2]; A. oryzae broth with approx. 90 mg/L recombinant p45, pro-trypsin 100 ug/ml to 13 mg/ml, room temperature, within 1 hour): 80-100%
- moles of pro-trypsin-like protease processed per mole of metalloprotease ([2]; pro-trypsin-like protease 100 ug/ml, within 1 hr.): about 50 moles
- Specific Activity, substrate FTC-Labelled Casein [3]: 170 FU/min*mg
- FTC-casein hydrolysis relative to trypsin-like F. oxysporum protease ([3]; on a molar basis at pH 9): approximately 16 fold
- Specific Activity, substrate merc-peptide [4]: 57 AU/min*mg
- effectiveness at hydrolyzing the mercapto-peptide relative to B.s. thermolysin [4]: about 25 fold
